The target in this test is hCXCR3 (human) (UniProt P49682). As to the kind of experiment: cell-based or functional assay.
hCXCR3 (human), sequence (P49682 whole entry): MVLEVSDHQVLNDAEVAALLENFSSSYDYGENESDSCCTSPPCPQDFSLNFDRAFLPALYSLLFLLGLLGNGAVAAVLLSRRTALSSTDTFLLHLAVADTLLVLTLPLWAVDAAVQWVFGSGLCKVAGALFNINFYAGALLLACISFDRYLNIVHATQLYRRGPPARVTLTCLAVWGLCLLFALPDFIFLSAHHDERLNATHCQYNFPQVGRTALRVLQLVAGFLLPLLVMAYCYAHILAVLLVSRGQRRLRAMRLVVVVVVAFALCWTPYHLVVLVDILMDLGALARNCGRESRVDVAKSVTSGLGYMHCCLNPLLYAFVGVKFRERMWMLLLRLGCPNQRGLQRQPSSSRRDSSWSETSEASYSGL

B1: recombinant native ITAC (ligand, UniProt O14625 22-94, looked up)
chain: FPMFKRGRCLCIGPGVKAVKVADIEKASIMYPSNNCDKIEVIITLKENKGQRCLNPKSKQARLIIKKVERKNF
B1 had an EC50, agonist activity in an Aequorin assay of 0.7 nM.

The values above are taken from patent publication US20180038857A1.
